{
  "source": "patent US20110257086A1",
  "about": "(Johns Hopkins, published 2011)",
  "assay_in_all_cases": "cell-based or functional assay",
  "key": {"p300 HAT": {"target": "p300 HAT"}, "[1]": {"target": "T1, ghrelin O-acyltransferase (GOAT) endogenous in human cell lines (HEL, Kato III, AGS) (human, UniProt Q96T53 1-435)", "T1 sequence": "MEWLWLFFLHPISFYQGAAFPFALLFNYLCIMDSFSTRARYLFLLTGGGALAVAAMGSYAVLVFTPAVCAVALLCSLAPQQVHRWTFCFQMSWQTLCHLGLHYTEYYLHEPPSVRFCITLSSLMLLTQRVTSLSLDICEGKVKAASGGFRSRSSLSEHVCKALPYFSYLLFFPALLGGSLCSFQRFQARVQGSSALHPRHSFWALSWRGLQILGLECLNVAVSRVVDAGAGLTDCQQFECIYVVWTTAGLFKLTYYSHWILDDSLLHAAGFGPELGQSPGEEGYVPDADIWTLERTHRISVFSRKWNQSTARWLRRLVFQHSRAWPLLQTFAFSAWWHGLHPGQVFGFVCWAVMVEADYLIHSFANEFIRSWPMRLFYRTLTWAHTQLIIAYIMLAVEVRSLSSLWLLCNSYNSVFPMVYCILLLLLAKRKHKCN"}, "PCAF HAT": {"target": "PCAF HAT"}, "[2]": {"target": "serotonin N-acetyltransferase"}},
  "data": [
    {"binder": "GSSFLSPEHQYGRKKRRQRRR (Ser3 of ghrelin replaced with 1,2-diaminopropionic acid (Dap), whose side-chain amine carries an octanoyl group conjugated at its alpha carbon to coenzyme A; amino-hexanoyl (Ahx) linker between ghrelin residue 10 and the Tat peptide)", "note": "[GO-CoA-Tat (Compound 1 of FIG. 1C), bisubstrate analog inhibitor of ghrelin O-acyltransferase]", "values": [
      {"measurement": "inhibition of acetyltransferase activity at 10 µM GO-CoA-Tat (alpha-KGDH coupled spectrophotometric assay)", "setting": "p300 HAT", "result": "< 15", "unit": "% inhibition"},
      {"measurement": "IC50 of reduction of acyl-ghrelin levels in cell lysates (HEL, Kato III, AGS cells)", "setting": "[1]", "result": "1000 to 2000", "unit": "nM"},
      {"measurement": "inhibition of acetyltransferase activity at 10 µM GO-CoA-Tat (alpha-KGDH coupled spectrophotometric assay)", "setting": "PCAF HAT", "result": "< 15", "unit": "% inhibition"},
      {"measurement": "inhibition of acetyltransferase activity at 10 µM GO-CoA-Tat (alpha-KGDH coupled spectrophotometric assay)", "setting": "[2]", "result": "< 15", "unit": "% inhibition"}
    ]}
  ]
}
